From US20250163162A1 (SYNTHEKINE, published 2025)

B1: DR466(DR240-DR232) (bispecific antibody)
chain: QVQLQESGGGSVQAGGSLRLSCGASGYTYSSYCMGWFRQVPGKEREGVAVIDSDGSTSYADSVKGRFTISKDNGKNTLYLQMNSLKPEDTAMYYCAADLGHYRPPCGVLYLGMDYWGKGTQVTVSSGGGSQVQLQESGGGSVQAGGSLRLSCVASGYTSCMGWFRQAPGKEREAVATIYTRGRSIYYADSVKGRFTISQDNAKNTLYLQMNSLKPEDIAMYSCAAGGYSWSAGCEFNYWGQGTQVTVSSASHHHHHH
B2: DR444(DR236-DR234) (bispecific antibody)
chain: QVQLQESGGGSVQAGGSLRLSCAASRFTYSSYCMGWFRQAPGKEREGVASIDSDGSTSYTDSVKGRFTISKDNAKNTLYLQMNSLKPEDTAMYYCALDLMSTVVPGFCGFLLSAGMDYWGKGTQVTVSSGGGSQVQLQESGGGSVQAGGSLRLSCVASGYTFSSYCMGWFRQAPGKEREGVAALGGGSTYYADSVKGRFTISQDNAKNTLYLQMNSLKPEDTAMYYCAAAWVACLEFGGSWYDLARYKHWGQGTQVTVSSASHHHHHH
B3: DR468(DR240-DR234) (bispecific antibody)
chain: QVQLQESGGGSVQAGGSLRLSCGASGYTYSSYCMGWFRQVPGKEREGVAVIDSDGSTSYADSVKGRFTISKDNGKNTLYLQMNSLKPEDTAMYYCAADLGHYRPPCGVLYLGMDYWGKGTQVTVSSGGGSQVQLQESGGGSVQAGGSLRLSCVASGYTFSSYCMGWFRQAPGKEREGVAALGGGSTYYADSVKGRFTISQDNAKNTLYLQMNSLKPEDTAMYYCAAAWVACLEFGGSWYDLARYKHWGQGTQVTVSSASHHHHHH
B4: DR474(DR241-DR234) (bispecific antibody)
chain: QVQLQESGGGSVQAGGSLRLSCAASGYSNCSYDMTWYRQAPGKEREFVSAIHSDGSTRYADSVKGRFFISQDNAKNTVYLQMNSLKPEDTAMYYCKTDPLHCRAHGGSWYSVRANYWGQGTQVTVSSGGGSQVQLQESGGGSVQAGGSLRLSCVASGYTFSSYCMGWFRQAPGKEREGVAALGGGSTYYADSVKGRFTISQDNAKNTLYLQMNSLKPEDTAMYYCAAAWVACLEFGGSWYDLARYKHWGQGTQVTVSSASHHHHHH
B5: DR438(DR235-DR234) (bispecific antibody)
chain: QVQLQESGGGSVQAGGSLRLSCAASRYLYSIDYMAWFRQSPGKEREPVAVIYTASGATFYPDSVKGRFTISQDNAKMTVYLQMNSLKSEDTAMYYCAAVRKTDSYLFDAQSFTYWGQGTQVTVSSGGGSQVQLQESGGGSVQAGGSLRLSCVASGYTFSSYCMGWFRQAPGKEREGVAALGGGSTYYADSVKGRFTISQDNAKNTLYLQMNSLKPEDTAMYYCAAAWVACLEFGGSWYDLARYKHWGQGTQVTVSSASHHHHHH

Molecular target: T1, IL10Rα/IL2Rγ receptor (human, UniProt Q13651 22-578; P31785 23-369)
T1 sequence (looked up) 1: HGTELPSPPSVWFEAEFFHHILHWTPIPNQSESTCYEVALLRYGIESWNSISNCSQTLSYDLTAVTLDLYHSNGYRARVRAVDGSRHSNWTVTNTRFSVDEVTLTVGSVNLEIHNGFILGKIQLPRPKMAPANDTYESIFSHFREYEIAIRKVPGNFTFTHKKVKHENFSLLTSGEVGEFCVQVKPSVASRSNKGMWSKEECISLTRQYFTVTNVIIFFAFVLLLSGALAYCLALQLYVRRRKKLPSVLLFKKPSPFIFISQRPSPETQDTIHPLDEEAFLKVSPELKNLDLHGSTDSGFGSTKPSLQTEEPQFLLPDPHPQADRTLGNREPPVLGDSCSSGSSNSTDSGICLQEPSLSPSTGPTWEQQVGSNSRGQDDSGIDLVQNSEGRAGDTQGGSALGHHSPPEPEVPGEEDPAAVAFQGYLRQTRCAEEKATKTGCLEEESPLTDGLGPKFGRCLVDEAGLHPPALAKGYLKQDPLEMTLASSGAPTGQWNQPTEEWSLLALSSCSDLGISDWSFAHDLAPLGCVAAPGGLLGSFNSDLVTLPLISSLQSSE
T1 sequence (looked up) 2: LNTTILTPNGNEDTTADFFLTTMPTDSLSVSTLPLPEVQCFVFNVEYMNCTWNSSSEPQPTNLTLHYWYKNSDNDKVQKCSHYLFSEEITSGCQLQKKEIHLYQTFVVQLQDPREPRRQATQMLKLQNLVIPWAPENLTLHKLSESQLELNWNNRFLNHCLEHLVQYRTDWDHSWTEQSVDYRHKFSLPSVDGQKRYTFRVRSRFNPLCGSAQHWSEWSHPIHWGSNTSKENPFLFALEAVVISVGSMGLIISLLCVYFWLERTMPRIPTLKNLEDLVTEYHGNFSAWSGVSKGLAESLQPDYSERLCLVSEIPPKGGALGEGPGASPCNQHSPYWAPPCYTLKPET
Test: cell-based or functional assay

Row | Binder | pSTAT3 MFI, B cells, 100 nM (unstimulated 1045) [MFI] | pSTAT3 MFI, CD4+ T cells, 100 nM (unstimulated 1778) [MFI] | pSTAT3 MFI, CD8+ T cells, 100 nM (unstimulated 1288) [MFI] | pSTAT3 MFI, Monocytes, 100 nM (unstimulated 1787) [MFI] | pSTAT3 MFI, NK cells, 100 nM (unstimulated 1149) [MFI]
1 | B1 | 1100 | 3170 | 2310 | 1870 | 1280
2 | B2 | 1070 | 3700 | 2410 | 1830 | 1270
3 | B3 | 1080 | 3520 | 2260 | 1860 | 1290
4 | B4 | 1030 | 3770 | 2460 | 2320 | 1230
5 | B5 | 1050 | 2780 | 1830 | 1810 | 1170
